In PMC7582951:

Target: C0-C1-C2 region of the glutamate NMDAR NR1 subunit (mouse) (UniProt P35438)
Experiment: pull-down; competition: 0.2 uM CaM with NR1 C0-C1-C2 covalently attached to NHS-activated Sepharose, 2.5 mM CaCl2, increasing concentrations of σ1R WT or E102Q; bound CaM and σ1R by western blot

UniProt P35438, sequence (P35438 834-938): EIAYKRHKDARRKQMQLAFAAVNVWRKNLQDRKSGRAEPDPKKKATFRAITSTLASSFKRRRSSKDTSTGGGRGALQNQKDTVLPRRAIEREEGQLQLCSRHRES

Row | concentration that prevented the binding of 200 nM CaM to NR1 | concentration that abolished the binding of 200 nM CaM to NR1 | Substance
1 | < 0.2 nM |  | sigma receptor type 1 (σ1R) E102Q mutant (from UniProt O55242 1-223) (natural protein)
2 |  | 60 nM | sigma receptor type 1 (σ1R), wild-type (from UniProt O55242 1-223) (natural protein)
